In PMC5737116, “Biochemical Properties of Human D-Amino Acid Oxidase” (Frontiers in Molecular Biosciences, 2017) one finds Km, kcat and kcat/Km data, which are given here for one substance.

Conditions in all cases: other: apparent, 21% oxygen saturation, pH 8.5, 25°C
The test system of data set [1] is T1, N[C@H](CS)C(=O)O.
T1 construct: made in house; host or cells: E. coli
Kind of data set: Oxygen-consumption activity assay, apparent kinetic parameters (substrate specificity). Type of data set: biochemical, human.

Data set [2] relates to T2, N[C@@H]1CON=C1O.
T2 construct: made in house; host or cells: E. coli
The description is as above. It is filed as biochemical, human.

For data set [3], the system named is N[C@H](Cc1ccc(O)c(O)c1)C(=O)O. Kind of data set: purified protein, by the assay type.

Chain of human DAAO (Homo sapiens) (chain, as listed by the source): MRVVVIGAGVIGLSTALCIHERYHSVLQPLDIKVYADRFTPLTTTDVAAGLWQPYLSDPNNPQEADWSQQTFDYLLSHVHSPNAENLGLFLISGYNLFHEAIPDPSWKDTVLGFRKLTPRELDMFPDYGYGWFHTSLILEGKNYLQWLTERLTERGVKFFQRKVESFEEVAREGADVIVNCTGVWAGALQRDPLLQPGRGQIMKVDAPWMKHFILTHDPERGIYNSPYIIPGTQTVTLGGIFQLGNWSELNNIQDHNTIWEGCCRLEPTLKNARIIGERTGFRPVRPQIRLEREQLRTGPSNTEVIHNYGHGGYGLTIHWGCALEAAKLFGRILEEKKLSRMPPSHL

Turning to human DAAO (Homo sapiens), in data set [1], the Km (as a rule, the substrate concentration at which the rate is half of its maximum) worked out at 0.6 ± 0.1 mM; the kcat came out at 8.6 ± 0.2 s⁻¹; the kcat/Km was 14600 M⁻¹ s⁻¹. In addition, in data set [2], the Km amounted to 83.5 ± 15.0 mM, the kcat amounted to 0.77 ± 0.05 s⁻¹ and the kcat/Km was 9 M⁻¹ s⁻¹. Besides, in data set [3], the Michaelis-Menten constant (Km) was determined as 6 mM, the kcat is 40.5 ± 5.1 [21.7]^d s^−1 and the kcat/Km is 6.75 [14.4]^d mM^−1 x s^−1.
